The text below walks through data of article PMC11211449.

The stoichiometry N is a count of units in the complex or per binding partner.

This experiment has as its target recombinant prefusion RV3 F antigen (human respirovirus 3 fusion glycoprotein, prefusion conformation) (human respirovirus 3 (RV3)). Nature of the experiment: cryo-EM structure.

In the case of “recombinant prefusion RV3 F antigen (human respirovirus 3 fusion glycoprotein, prefusion conformation) (natural protein)”, the stoichiometry N was determined as 3.
